Article PMC9870916, “The mitochondrial inhibitor IF1 binds to the ATP synthase OSCP subunit and protects cancer cells from apoptosis” (Cell Death & Disease, 2023)

Molecular target: T1, OSCP-NT (R6-G114) (human, UniProt P48047 29-137)
T1 construct: Used unlabelled (added in excess) or 15N-labelled (observed); cleavage leaves no additional residues; also called N-terminal domain of OSCP; source: E. coli BL21(DE3), purified (Ni-HisTrap, Ulp1 cleavage, cation exchange, Superdex 75); not shown: His6-SUMO, N-terminal, cleaved
T1 sequence (looked up): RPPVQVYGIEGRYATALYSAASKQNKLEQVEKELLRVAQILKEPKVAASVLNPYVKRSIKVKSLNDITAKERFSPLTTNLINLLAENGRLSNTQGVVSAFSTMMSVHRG
Assay: NMR titration; 1H-15N SOFAST-HMQC of 15N-labelled IF1-NT without and with 15-fold molar excess of unlabelled OSCP-NT or OSCP-CT; for OSCP-NT: 30 μM IF1-NT, 450 μM OSCP-NT, 50 mM phosphate, 300 mM NaCl, pH 7.0, 7 °C
Settings: both partners purified

B1: IF1-NT (G1-E40) (domain or fragment, human, UniProt Q9UII2 26-65, looked up)
chain: GSDQSENVDRGAGSIREAGGAFGKREQAEEERYFRAQSRE
notes: Used 15N-labelled (observed) or unlabelled (added in excess); cleavage leaves no additional residues; also called IF1-1NT; N-terminal domain of IF1; source: E. coli BL21(DE3), purified (Ni-HisTrap, Ulp1 cleavage, second Ni-HisTrap, Superdex 75); not shown: His6-SUMO, N-terminal, cleaved
  binding result: binds
